In assay [1] the target is T1, FcγRIIIa extracellular domain with C-terminal His tag (human, UniProt P08637 17-208).
T1 construct: extracellular domain; also called FcgRIIIa; 3a; not shown: His tag attached to the C terminus
Description: SPR (Biacore), antibody captured, FcγR as analyte; binding activity relative to control heterodimerized antibody. How it is done: (§1) The heterodimerized antibodies He Abs in which one of the H chains was introduced with an alteration were assayed for their binding activities to each activating FcγR and inhibitory FcγR according to the method described in Example 4. […] The activating FcγRs in FIGS. 26, 27, 28, and 29 are FcγRIa, FcγRIIa (R), FcγRIIa (H), and FcγRIIIa, respectively.
(§2) Analysis of interaction between objective antibody and the FcγR was carried out using Biacore T100 (GE Healthcare). HBS-EP+ (GE Healthcare) was used as the running buffer, and the measurement temperature was set to 25° C. Chips produced by immobilizing the antigen peptide by the amine coupling method to a Series S Sencor Chip CM5 (GE Healthcare), or alternatively, chips produced by allowing preliminarily biotinylated antigen peptides to interact with and immobilize onto a Series S Sensor Chip SA (certified) (GE Healthcare) were used. Antibodies of interest were captured onto an antigen peptide-immobilized chip, and allowed to interact to each FcγR diluted with running buffer. To regenerate and repeatedly use the chip, the antibodies captured on the chip were washed off by reacting 10 mM glycine-HCl, pH 1.5.
On the technique in general: In SPR one partner is held on a chip, and binding of the other changes the refractive index at the surface.

Assay [2] addresses T2, FcγRIIb extracellular domain with C-terminal His tag (human, UniProt P31994 43-217).
T2 construct: extracellular domain; Soluble receptor expressed in FreeStyle293 cells and used as analyte in Biacore; also called FcgRIIb; 2b; not shown: His tag attached to the C terminus
T2 sequence (looked up): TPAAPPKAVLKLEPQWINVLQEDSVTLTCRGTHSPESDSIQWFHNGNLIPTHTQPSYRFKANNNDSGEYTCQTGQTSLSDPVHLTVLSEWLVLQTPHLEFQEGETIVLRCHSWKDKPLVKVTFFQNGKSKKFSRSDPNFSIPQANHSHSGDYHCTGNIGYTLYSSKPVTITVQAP
Described as above. How it is done: as §1, §2

The target in assay [3] is T1, FcγRIIIa extracellular domain with …. Description: SPR (Biacore); He/Con_3a divided by He/Con_2b (FcγRIIIa over FcγRIIb). How it is done:
as §1, §2

The target of assay [4] is T3, FcγRIa (human, UniProt P12314 16-292).
T3 construct: extracellular domain; Soluble extracellular domain with C-terminal His tag, used as analyte in Biacore; also called FcgRI; 1a; not shown: His tag attached to the C terminus
T3 sequence (P12314 16-292): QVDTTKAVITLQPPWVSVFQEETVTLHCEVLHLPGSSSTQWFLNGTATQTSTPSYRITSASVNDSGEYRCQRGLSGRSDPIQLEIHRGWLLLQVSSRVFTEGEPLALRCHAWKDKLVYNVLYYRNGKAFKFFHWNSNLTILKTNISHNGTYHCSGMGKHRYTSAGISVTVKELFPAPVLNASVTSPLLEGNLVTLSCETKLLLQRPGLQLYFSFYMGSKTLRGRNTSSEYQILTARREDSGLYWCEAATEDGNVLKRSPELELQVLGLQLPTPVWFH
Description: SPR (Biacore), antibody captured, FcγR as analyte; relative to GpH7-A5/GpH7-B3/GpL16-k0 = 100.

In the next assay the target is T4, FcγRIIb (human, UniProt P31994 43-217).
T4 construct: extracellular domain; Soluble extracellular domain with C-terminal His tag, used as analyte in Biacore; also called FcgRIIb; 2b; not shown: His tag attached to the C terminus
T4 sequence (looked up): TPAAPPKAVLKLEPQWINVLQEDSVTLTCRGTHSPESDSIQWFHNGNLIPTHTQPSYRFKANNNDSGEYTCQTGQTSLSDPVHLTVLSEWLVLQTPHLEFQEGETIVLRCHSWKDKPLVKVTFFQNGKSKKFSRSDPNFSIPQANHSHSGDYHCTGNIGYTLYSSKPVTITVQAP
The description is as above.

Assay [5] deals with T3, FcγRIa. Description: SPR (Biacore); He/Con_1a divided by He/Con_2b (binding to FcγRIa against binding to FcγRIIb). How it is done:
as §1, §2

T1 sequence (P08637 17-208): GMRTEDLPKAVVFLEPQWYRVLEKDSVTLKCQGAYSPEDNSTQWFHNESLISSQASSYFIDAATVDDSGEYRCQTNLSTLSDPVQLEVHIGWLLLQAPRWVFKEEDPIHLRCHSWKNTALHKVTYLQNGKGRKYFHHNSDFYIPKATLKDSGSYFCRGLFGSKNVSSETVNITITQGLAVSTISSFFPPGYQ

B1: GpH7-A5/GpH7-B3 variant E269_13S/GpL16-k0 (antibody, human IgG1, kappa)
heavy 1: not shown
heavy 2: not shown
light: DIVMTQSPLSLPVTPGEPASISCQASESLVHSNRNTYLHWYLQKPGQSPQLLIYKVSNRFSGVPDRFSGSGSGTDFTLKISRVEAEDVGVYYCSQNTHVPPTFGQGTKVEIERTVAAPSVFIFPPSDEQLKSGTASVVCLLNNFYPREAKVQWKVDNALQSGNSQESVTEQDSKDSTYSLSSTLTLSKADYEKHKVYACEVTHQGLSSPVTKSFNRGEC
notes: Heterodimerized anti-glypican-3 IgG1 with the alteration in only one H chain; also called He Ab
Take B1: the He/Con_3a in assay [1] is 62.7 % of GpH7-A5/GpH7-B3/GpL16-k0 (=100). The He/Con_2b in assay [2] was 47.8 % of GpH7-A5/GpH7-B3/GpL16-k0 (=100). This molecule also registered a He_3a/2b in assay [3] of 1.31 ratio.

B2: GpH7-A5/GpH7-B3 variant G236_09D/GpL16-k0 (antibody, human IgG1, kappa)
heavy 1: not shown
heavy 2: not shown
light: DIVMTQSPLSLPVTPGEPASISCQASESLVHSNRNTYLHWYLQKPGQSPQLLIYKVSNRFSGVPDRFSGSGSGTDFTLKISRVEAEDVGVYYCSQNTHVPPTFGQGTKVEIERTVAAPSVFIFPPSDEQLKSGTASVVCLLNNFYPREAKVQWKVDNALQSGNSQESVTEQDSKDSTYSLSSTLTLSKADYEKHKVYACEVTHQGLSSPVTKSFNRGEC
notes: Heterodimerized anti-glypican-3 IgG1; alteration in the GpH7-B3 chain only; also called He Ab
As for B2, the He/Con_1a with FcγRIa [4] is 96.6 % of control (=100). The He/Con_2b with FcγRIIb is 167 % of control (=100). Moreover, the “He_1a/2b (Ia/IIb)” value in the assay with FcγRIa [5] was found to be 0.58 ratio.

B3: GpH7-A5/GpH7-B3 variant Q295_09D/GpL16-k0 (antibody, human IgG1, kappa)
heavy 1: not shown
heavy 2: not shown
light: DIVMTQSPLSLPVTPGEPASISCQASESLVHSNRNTYLHWYLQKPGQSPQLLIYKVSNRFSGVPDRFSGSGSGTDFTLKISRVEAEDVGVYYCSQNTHVPPTFGQGTKVEIERTVAAPSVFIFPPSDEQLKSGTASVVCLLNNFYPREAKVQWKVDNALQSGNSQESVTEQDSKDSTYSLSSTLTLSKADYEKHKVYACEVTHQGLSSPVTKSFNRGEC
notes: as for B1
As for B3, the He/Con_3a in assay [1] is 81.5 % of GpH7-A5/GpH7-B3/GpL16-k0 (=100). Moreover, in assay [2], the He/Con_2b is 60.8 % of GpH7-A5/GpH7-B3/GpL16-k0 (=100). For the same molecule, the He_3a/2b in assay [3] came out at 1.34 ratio.

B4: GpH7-A5/GpH7-B3 variant E269_12R/GpL16-k0 (antibody, human IgG1, kappa)
heavy 1: not shown
heavy 2: not shown
light: DIVMTQSPLSLPVTPGEPASISCQASESLVHSNRNTYLHWYLQKPGQSPQLLIYKVSNRFSGVPDRFSGSGSGTDFTLKISRVEAEDVGVYYCSQNTHVPPTFGQGTKVEIERTVAAPSVFIFPPSDEQLKSGTASVVCLLNNFYPREAKVQWKVDNALQSGNSQESVTEQDSKDSTYSLSSTLTLSKADYEKHKVYACEVTHQGLSSPVTKSFNRGEC
notes: as for B1
For B4, the He/Con_3a in assay [1] was 43.2 % of GpH7-A5/GpH7-B3/GpL16-k0 (=100). Also, the He/Con_2b in assay [2] was 25.2 % of GpH7-A5/GpH7-B3/GpL16-k0 (=100). In addition, in assay [3], the He_3a/2b came to 1.72 ratio.

B5: GpH7-A5/GpH7-B3 variant E269_16H/GpL16-k0 (antibody, human IgG1, kappa)
heavy 1: not shown
heavy 2: not shown
light: DIVMTQSPLSLPVTPGEPASISCQASESLVHSNRNTYLHWYLQKPGQSPQLLIYKVSNRFSGVPDRFSGSGSGTDFTLKISRVEAEDVGVYYCSQNTHVPPTFGQGTKVEIERTVAAPSVFIFPPSDEQLKSGTASVVCLLNNFYPREAKVQWKVDNALQSGNSQESVTEQDSKDSTYSLSSTLTLSKADYEKHKVYACEVTHQGLSSPVTKSFNRGEC
notes: as for B1
Regarding B5, in assay [1], the He/Con_3a was 51.2 % of GpH7-A5/GpH7-B3/GpL16-k0 (=100). Moreover, in assay [2], the He/Con_2b was 38.5 % of GpH7-A5/GpH7-B3/GpL16-k0 (=100). The same molecule had a He_3a/2b in assay [3] of 1.33 ratio.

B6: GpH7-A5/GpH7-B3 variant Q295_01G/GpL16-k0 (antibody, human IgG1, kappa)
heavy 1: not shown
heavy 2: not shown
light: DIVMTQSPLSLPVTPGEPASISCQASESLVHSNRNTYLHWYLQKPGQSPQLLIYKVSNRFSGVPDRFSGSGSGTDFTLKISRVEAEDVGVYYCSQNTHVPPTFGQGTKVEIERTVAAPSVFIFPPSDEQLKSGTASVVCLLNNFYPREAKVQWKVDNALQSGNSQESVTEQDSKDSTYSLSSTLTLSKADYEKHKVYACEVTHQGLSSPVTKSFNRGEC
notes: as for B1
Turning to B6, the He/Con_3a in assay [1] was 73 % of GpH7-A5/GpH7-B3/GpL16-k0 (=100). For the same molecule, the He/Con_2b in assay [2] was 46 % of GpH7-A5/GpH7-B3/GpL16-k0 (=100). Also, in assay [3], the He_3a/2b was 1.59 ratio.

B7: GpH7-A5/GpH7-B3 variant Q295_02A/GpL16-k0 (antibody, human IgG1, kappa)
heavy 1: not shown
heavy 2: not shown
light: DIVMTQSPLSLPVTPGEPASISCQASESLVHSNRNTYLHWYLQKPGQSPQLLIYKVSNRFSGVPDRFSGSGSGTDFTLKISRVEAEDVGVYYCSQNTHVPPTFGQGTKVEIERTVAAPSVFIFPPSDEQLKSGTASVVCLLNNFYPREAKVQWKVDNALQSGNSQESVTEQDSKDSTYSLSSTLTLSKADYEKHKVYACEVTHQGLSSPVTKSFNRGEC
notes: as for B1
For the molecule B7, the He/Con_3a in assay [1] was 106 % of GpH7-A5/GpH7-B3/GpL16-k0 (=100). Also, the He/Con_2b in assay [2] is 79.7 % of GpH7-A5/GpH7-B3/GpL16-k0 (=100). Moreover, in assay [3], the He_3a/2b was 1.32 ratio.
